Assay results reported in patent publication CN113354737A (GUANGZHOU EXCELMAB BIOMEDICAL TECH CO LTD, dated 2021).
Read-outs that look alike come from different tables or passages of the source.

B1: 亲和力成熟变体5E11 (antibody, V domains shown)
VH: QVQLKQSGAELMKPGASVKISCKATGYTFSRYWIEWVKQRPGHGLEWIGEILPGSGSTSYNEKFKGKATFTADTSSNTAYMQLSSLTSEDSAVYYCARSARATYYFDYWGQGTTLTVSS
VL: DIQMTQTTSSLSASLGDRVTISCWASQDISNYLNWYQQKPDGTVKLLIYYTSTLHSGVPSRFSGSGSGTDYSLTISNLEQEDIATYFCQQGNALPYTFGGGTKLEIK
B2: 亲和力成熟变体5A5 (antibody, V domains shown)
VH: QVQLQQSGTELVRPGASVKLSCKALGYTFTDYEMHWVKQTPVHGLEWIGAIHPGSGDTAYNQRFKGKATLTADKSSSTAYMEYSSLTSEDSAVYYCTRFYSYAYWGQGTLVTVSA
VL: DVVMTQTPLSLPVSLGDQASISCRSSQSLVHSNGNTYLQWYLQKPGQSPKLLIYKVSNRFSGVPDRFSGRGSGTDFTLKISRVEAEDLGVYFCSQSIYVPYTFGGGTKLEIK
B3: 人源GPC3抗体10C7 (antibody, V domains shown)
VH: QVQLVQSGAEVKKPGASVKLSCKASGYTFTDYEMHWVKQTPGKGLKWIGALDPKTGDTAYAQKFQGRATLTADTSTDTAYMELSSLRSEDSAVYYCTRFYSYTYWGQGTLVTVSS
VL: DIVLTQSPLSLTVTPGEPASISCRSSESLVHSNGNTYLSWLQQRPGQPPRLLIYKISNRFSGVPDRFSGSGAGTDFTLKISRVEAEDVGVYYCTQATQFPYTFGQGTKVEIK
notes: also called 抗人GPC3抗体10C7
B4: 亲和力成熟变体7C6 (antibody, V domains shown)
VH: QVQLQQPGAELVKPGASVKLSCKASGYTFTTYYMYWVKQRPGQGLEWIGEINPSNGGTNFNEKFKSKATLTVDKSSSTAYMQLSSLTSEDSAVYYCTTFAYWGQGTLVTVSA
VL: DIVMTQSPSSLSASLGGKVTITCKASQDINKYIVWYQHKPGKGPRLLIHYTSILQPGIPSRFSGSGSGRDYSFSISNLEPEDIATYYCLQYDNLWTFGGGTKLEIK

Assays:
Assay in all cases: ELISA, coated antigen, HRP anti-human IgG
[1] = molecular target: T1, 重组人GPC3近膜端抗原 (human, UniProt P51654 524-563)
T1 construct: range 524-563
T1 chain (looked up): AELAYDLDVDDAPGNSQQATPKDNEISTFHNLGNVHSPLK

[2] = molecular target: T1, 重组人GPC3近膜端抗原
[3] = molecular target: T2, 重组人GPC3胞外区抗原 (human, UniProt P51654 25-559, limits assumed)
T2 construct: extracellular domain

[4] = molecular target: T1, 重组人GPC3近膜端抗原

T2 sequence (P51654 25-559 limits assumed): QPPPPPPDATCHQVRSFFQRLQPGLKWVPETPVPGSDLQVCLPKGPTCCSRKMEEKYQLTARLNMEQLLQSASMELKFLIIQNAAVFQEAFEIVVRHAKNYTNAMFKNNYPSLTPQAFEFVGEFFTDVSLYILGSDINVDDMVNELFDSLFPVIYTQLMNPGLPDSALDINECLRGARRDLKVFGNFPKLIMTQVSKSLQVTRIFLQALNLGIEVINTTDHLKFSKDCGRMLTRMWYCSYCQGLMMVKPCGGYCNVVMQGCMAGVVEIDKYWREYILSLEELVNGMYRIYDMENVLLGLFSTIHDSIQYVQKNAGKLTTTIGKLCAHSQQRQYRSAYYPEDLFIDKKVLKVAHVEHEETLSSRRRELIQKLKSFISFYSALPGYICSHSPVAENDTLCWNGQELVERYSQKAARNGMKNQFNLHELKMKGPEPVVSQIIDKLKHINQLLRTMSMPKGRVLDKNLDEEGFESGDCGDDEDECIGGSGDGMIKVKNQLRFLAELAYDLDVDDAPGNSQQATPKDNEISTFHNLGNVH

| Molecule | EC50 [1] [µg/mL] | EC50 [2] [µg/mL] | EC50 [3] [µg/mL] | EC50 [4] [µg/mL] |
| --- | --- | --- | --- | --- |
| GC33单抗模拟物 (antibody) | 0.063 | – | – | – |
| B1 | – | 0.12 | – | – |
| B2 | – | 0.0951 | – | – |
| B3 | – | 0.141 | 0.0836 | 0.0279 |
| B4 | – | 0.0428 | – | – |
